Data from the Human Domainome abundance scans (Beltran et al. 2025).
± gives the uncertainty stated by the source.

B1: Activity-dependent neuroprotector homeobox protein, residues 770 to 810; numbered along this chain, Q9H2P0 (parent)
chain: FLTKYFNKQPYPTRREIEKLAASLWLWKSDIASHFSNKRKK

Variants of: B1
Experiment: abundance fitness (aPCA) (normalised: wild type 0, dead -1); higher = more abundant; growth selection in yeast, the domain comes from the species named
Conditions: Homo sapiens

Row | Variant | abundance fitness
1 | FLTKYFNKQPYPTRREIEKLAASLCLWKSDIASHFSNKRKK [W25C] | -0.14 ± 0.071
2 | FLTKYFNKQPYPTRREIEKLAASLMLWKSDIASHFSNKRKK [W25M] | -0.009 ± 0.1
3 | FLTKYFNKQPYPTRREIEKLAASLTLWKSDIASHFSNKRKK [W25T] | 0.141 ± 0.054
4 | FLTKYFNKQPYPTRREIEKLAASLPLWKSDIASHFSNKRKK [W25P] | -0.176 ± 0.065
5 | FLTKYFNKQPYPTRREIEKLAASLSLWKSDIASHFSNKRKK [W25S] | 0.134 ± 0.051
6 | FLTKYFNKQPYPTRREIEKLAASLRLWKSDIASHFSNKRKK [W25R] | 0.254 ± 0.052
7 | FLTKYFNKQPYPTRREIEKLAASLFLWKSDIASHFSNKRKK [W25F] | -0.168 ± 0.4
8 | FLTKYFNKQPYPTRREIEKLAASLHLWKSDIASHFSNKRKK [W25H] | 0.071 ± 0.086
9 | FLTKYFNKQPYPTRREIEKLAASLELWKSDIASHFSNKRKK [W25E] | 0.13 ± 0.088
10 | FLTKYFNKQPYPTRREIEKLAASLKLWKSDIASHFSNKRKK [W25K] | 0.361 ± 0.084
11 | FLTKYFNKQPYPTRREIEKLAASLYLWKSDIASHFSNKRKK [W25Y] | -0.233 ± 0.22
12 | FLTKYFNKQPYPTRREIEKLAASLALWKSDIASHFSNKRKK [W25A] | 0.064 ± 0.065
13 | FLTKYFNKQPYPTRREIEKLAASLLLWKSDIASHFSNKRKK [W25L] | 0.097 ± 0.063
14 | FLTKYFNKQPYPTRREIEKLAASLDLWKSDIASHFSNKRKK [W25D] | -0.159 ± 0.12
15 | FLTKYFNKQPYPTRREIEKLAASLQLWKSDIASHFSNKRKK [W25Q] | 0.068 ± 0.08
16 | FLTKYFNKQPYPTRREIEKLAASLVLWKSDIASHFSNKRKK [W25V] | 0.133 ± 0.055
17 | FLTKYFNKQPYPTRREIEKLAASLNLWKSDIASHFSNKRKK [W25N] | -0.021 ± 0.096
18 | FLTKYFNKQPYPTRREIEKLAASLWLEKSDIASHFSNKRKK [W27E] | -0.74 ± 0.33
19 | FLTKYFNKQPYPTRREIEKLAASLWLMKSDIASHFSNKRKK [W27M] | -0.031 ± 0.099
20 | FLTKYFNKQPYPTRREIEKLAASLWLPKSDIASHFSNKRKK [W27P] | -0.398 ± 0.08
21 | FLTKYFNKQPYPTRREIEKLAASLWLHKSDIASHFSNKRKK [W27H] | -0.137 ± 0.081

Row | Variant | abundance fitness
22 | FLTKYFNKQPYPTRREIEKLAASLWLLKSDIASHFSNKRKK [W27L] | -0.04 ± 0.05
23 | FLTKYFNKQPYPTRREIEKLAASLWLKKSDIASHFSNKRKK [W27K] | 0.067 ± 0.06
24 | FLTKYFNKQPYPTRREIEKLAASLWLCKSDIASHFSNKRKK [W27C] | -0.188 ± 0.061
25 | FLTKYFNKQPYPTRREIEKLAASLWLRKSDIASHFSNKRKK [W27R] | 0.025 ± 0.052
26 | FLTKYFNKQPYPTRREIEKLAASLWLDKSDIASHFSNKRKK [W27D] | -0.22 ± 0.17
27 | FLTKYFNKQPYPTRREIEKLAASLWLNKSDIASHFSNKRKK [W27N] | -0.295 ± 0.091
28 | FLTKYFNKQPYPTRREIEKLAASLWLQKSDIASHFSNKRKK [W27Q] | -0.492 ± 0.13
29 | FLTKYFNKQPYPTRREIEKLAASLWLAKSDIASHFSNKRKK [W27A] | -0.084 ± 0.052
30 | FLTKYFNKQPYPTRREIEKLAASLWLGKSDIASHFSNKRKK [W27G] | 0.037 ± 0.064
31 | FLTKYFNKQPYPTRREIEKLAASLWLTKSDIASHFSNKRKK [W27T] | -0.152 ± 0.062
32 | FLTKYFNKQPYPTRREIEKLAASLWCWKSDIASHFSNKRKK [L26C] | -0.014 ± 0.068
33 | FLTKYFNKQPYPTRREIEKLAASLWTWKSDIASHFSNKRKK [L26T] | 0.022 ± 0.066
34 | FLTKYFNKQPYPTRREIEKLAASLWHWKSDIASHFSNKRKK [L26H] | 0.253 ± 0.074
35 | FLTKYFNKQPYPTRREIEKLAASLWAWKSDIASHFSNKRKK [L26A] | -0.116 ± 0.068
36 | FLTKYFNKQPYPTRREIEKLAASLWDWKSDIASHFSNKRKK [L26D] | -0.004 ± 0.075
37 | FLTKYFNKQPYPTRREIEKLAASLWEWKSDIASHFSNKRKK [L26E] | 0.127 ± 0.061
38 | FLTKYFNKQPYPTRREIEKLAASLWVWKSDIASHFSNKRKK [L26V] | 0.037 ± 0.056
39 | FLTKYFNKQPYPTRREIEKLAASLWMWKSDIASHFSNKRKK [L26M] | 0.115 ± 0.084
40 | FLTKYFNKQPYPTRREIEKLAASLWGWKSDIASHFSNKRKK [L26G] | 0.101 ± 0.055
41 | FLTKYFNKQPYPTRREIEKLAASLWKWKSDIASHFSNKRKK [L26K] | 0.341 ± 0.063
42 | FLTKYFNKQPYPTRREIEKLAASLWWWKSDIASHFSNKRKK [L26W] | 0.044 ± 0.075

Row | Variant | abundance fitness
43 | FLTKYFNKQPYPTRREIEKLAASLWIWKSDIASHFSNKRKK [L26I] | -0.134 ± 0.063
44 | FLTKYFNKQPYPTRREIEKLAASLWPWKSDIASHFSNKRKK [L26P] | 0.343 ± 0.058
45 | FLTKYFNKQPYPTRREIEKLAASLWRWKSDIASHFSNKRKK [L26R] | 0.198 ± 0.049
46 | FLTKYFNKQPYPTRREIEKLAASLWFWKSDIASHFSNKRKK [L26F] | 0.069 ± 0.088
47 | FLTKYFNKQPYPTRREIEKLAASLWYWKSDIASHFSNKRKK [L26Y] | -0.151 ± 0.083
48 | FLTKYFNKQPYPTRREIEKLAASLWQWKSDIASHFSNKRKK [L26Q] | 0.122 ± 0.085
49 | FLTKYFNKQPYPTRREIEKLAASLWSWKSDIASHFSNKRKK [L26S] | 0.033 ± 0.051
50 | FLTKYFNKQPYPTRREIEKLAASFWLWKSDIASHFSNKRKK [L24F] | -0.197 ± 0.13
51 | FLTKYFNKQPYPTRREIEKLAASVWLWKSDIASHFSNKRKK [L24V] | 0.123 ± 0.07
52 | FLTKYFNKQPYPTRREIEKLAASDWLWKSDIASHFSNKRKK [L24D] | -0.033 ± 0.19
53 | FLTKYFNKQPYPTRREIEKLAASEWLWKSDIASHFSNKRKK [L24E] | -0.82 ± 0.2
54 | FLTKYFNKQPYPTRREIEKLAASSWLWKSDIASHFSNKRKK [L24S] | -0.483 ± 0.13
55 | FLTKYFNKQPYPTRREIEKLAASPWLWKSDIASHFSNKRKK [L24P] | -0.289 ± 0.068
56 | FLTKYFNKQPYPTRREIEKLAASWWLWKSDIASHFSNKRKK [L24W] | -0.121 ± 0.093
57 | FLTKYFNKQPYPTRREIEKLAASGWLWKSDIASHFSNKRKK [L24G] | -0.228 ± 0.072
58 | FLTKYFNKQPYPTRREIEKLAASQWLWKSDIASHFSNKRKK [L24Q] | -0.783 ± 0.22
59 | FLTKYFNKQPYPTRREIEKLAASTWLWKSDIASHFSNKRKK [L24T] | -0.212 ± 0.082
60 | FLTKYFNKQPYPTRREIEKLAASKWLWKSDIASHFSNKRKK [L24K] | -0.321 ± 0.088
61 | FLTKYFNKQPYPTRREIEKLAASIWLWKSDIASHFSNKRKK [L24I] | 0.051 ± 0.099
62 | FLTKYFNKQPYPTRREIEKLAASRWLWKSDIASHFSNKRKK [L24R] | -0.339 ± 0.062
